In patent US5998142, “Systematic evolution of ligands by exponential enrichment: chemi-SELEX” (NeXstar Pharmaceuticals, Inc.):

Key:
[1] = biological target: bradykinin, N-bromoacetylated (BrBK) (UniProt P01042 P01042:381-389); test: kobs covalent reaction, APM gel, 0 C, 5 mM MgCl2; details: protein: synthetic; tags: synthetic peptide, N-terminal bromoacetyl
Experimental: Reverse transcription and polymerase chain reaction were carried out as reported by Schneider et al., (FASEB, 7, 201 (1993)). […] Reactions to determine $kobs$ values were carried out at 0° C. in reaction buffer (50 mM HEPES, pH 7.0, 5 mM MgCl_2, 150 mM NaCl) at 2 µM GMPS-RNA and 130 µM BrBK, with monitoring at 0, 1, 3, 10, 30, and 90 minutes. GMPS-RNA was denatured at 70° C. for 3 minutes and allowed to slow cool at room temperature prior to dilution to final reaction buffer conditions, transfer to ice, and addition of BrBK. Reactions were quenched on ice with 235 mM sodium thiosulfate and run on a denaturing 7 M urea 8% polyacrylamide APM gel. $kobs$ values were determined as the negative slope of the linear range of data points from plots relating the concentration of unreacted GMPS- RNA vs. time. Round 10 and round 12 pools were used for cloning and sequencing.

Rev = Rev (HIV-1, UniProt P04618 P04618:1-116); test: EMSA; covalent complex without UV, resistant to 7M urea PAGE, in presence of human nuclear extract, on ice
Experimental: Trunc24 (SEQ ID NO:226) photo-independent crosslinking with HIV-1 Rev in the presence of human nuclear extracts was determined as follows: Trunc24 RNA, nuclear extracts, and Rev protein were combined and incubated on ice for 10 min. Samples were mixed 1:1 with 8M urea loading buffer and placed on a 7M urea, 8% polyacrylamide gel for analysis.

bradykinin (BK) = bradykinin (BK) (UniProt P01042 P01042:381-389); test: competition; inhibition of reaction of 12.1 with BrBK; +/-60; details: tags: native peptide
des-Arg9-bradykinin = des-Arg9-bradykinin (UniProt P01042 P01042:381-388, des-Arg9); test: competition; inhibition of reaction of 12.1 with BrBK; +/-0.5; details: tags: peptide analog
des-Arg9-bradykinin, sequence (P01042 whole entry, looked up, change not shown, one chain of several): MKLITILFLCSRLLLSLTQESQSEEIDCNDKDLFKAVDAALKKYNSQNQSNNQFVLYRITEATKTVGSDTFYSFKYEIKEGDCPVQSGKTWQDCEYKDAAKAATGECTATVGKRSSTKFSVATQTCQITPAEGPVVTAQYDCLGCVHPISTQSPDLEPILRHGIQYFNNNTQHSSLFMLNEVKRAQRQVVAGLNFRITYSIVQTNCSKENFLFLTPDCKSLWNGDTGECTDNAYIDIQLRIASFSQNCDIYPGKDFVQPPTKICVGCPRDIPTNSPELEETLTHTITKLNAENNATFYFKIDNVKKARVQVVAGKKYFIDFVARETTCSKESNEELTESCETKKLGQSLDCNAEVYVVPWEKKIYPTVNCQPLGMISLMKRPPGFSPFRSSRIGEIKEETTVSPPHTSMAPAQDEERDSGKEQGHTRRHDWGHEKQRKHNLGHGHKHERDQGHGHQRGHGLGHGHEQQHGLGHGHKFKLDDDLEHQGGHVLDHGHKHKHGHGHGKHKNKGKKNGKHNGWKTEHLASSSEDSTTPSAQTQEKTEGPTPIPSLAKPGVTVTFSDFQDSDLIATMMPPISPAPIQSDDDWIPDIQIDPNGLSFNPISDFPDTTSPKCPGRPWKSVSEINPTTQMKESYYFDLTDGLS

bradykinin, N-bromoacetylated (BrBK), sequence (P01042 whole entry, looked up, one chain of several): as the sequence (P01042 whole entry, looked up, change not shown, one chain of several) above
Rev, sequence (P04618 whole entry, one chain of several): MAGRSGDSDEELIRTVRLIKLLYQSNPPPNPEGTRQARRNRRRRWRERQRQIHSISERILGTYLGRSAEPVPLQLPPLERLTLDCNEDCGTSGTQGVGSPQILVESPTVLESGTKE
bradykinin (BK), sequence (P01042 whole entry, looked up, one chain of several): as the sequence (P01042 whole entry, looked up, change not shown, one chain of several) above

B1: 10.28 (ssRNA)
RNA: GGGAGCUCAGAAUAAACGCUCAACGUUUAGGACUCCCCCGUUCGUCGAGCGAAUUCGACAUGAGGCCCGGAUCCGGC
modifications: 5'-GMPS
activity [1]: 0.0018 s⁻¹

B2: 12.47 (ssRNA)
RNA: GGGAGCUCAGAAUAAACGCUCAAUGUGUGAGUGGAUCCGUUCCCCGCCUGGUGUUCGACAUGAGGCCCGGAUCCGGC
modifications: 5'-GMPS
activity [1]: 0.00149 s⁻¹

B3: 12.3 (ssRNA)
RNA: GGGAGCUCAGAAUAAACGCUCAACAUCACAACUUGUUGUCCUGGUCGAUGUCCUUCGACAUGAGGCCCGGAUCCGGC
modifications: 5'-GMPS
activity [1]: 0.00075 s⁻¹

B4: 12.22 (ssRNA)
RNA: GGGAGCUCAGAAUAAACGCUCAAUGCCACUUUUGUUCGGAUCUUAGGAAGGCAUUCGACAUGAGGCCCGGAUCCGGC
modifications: 5'-GMPS
activity [1]: 0.0012 s⁻¹

GGGGAUUAACAGGCACACCUGUUAACCCU (ssRNA, 5-iodouracil at all U) [Trunc24]
binding result (Rev): binds

B5: 12.9 (ssRNA)
RNA: GGGAGCUCAGAAUAAACGCUCAAGUGGAGCUUCGUGACUUGGUCGGAGCCGUGUUCGACAUGAGGCCCGGAUCCGGC
modifications: 5'-GMPS
activity [1]: 0.00128 s⁻¹

B6: 12.46 (ssRNA)
RNA: GGGAGCUCAGAAUAAACGCUCAAUGGACACAACUCCAUUCAUCCCGGGACCGCUGUUCGACAUGAGGCCCGGAUCCGGC
modifications: 5'-GMPS
activity [1]: 0.00067 s⁻¹

B7: 12.6 (ssRNA)
RNA: GGGAGCUCAGAAUAAACGCUCAAGCGGUAACAUGCUGGAUCUCAGGAAACCGCUUCGACAUGAGGCCCGGAUCCGGC
modifications: 5'-GMPS
activity [1]: 0.0022 s⁻¹

B8: 12.45 (ssRNA)
RNA: GGGAGCUCAGAAUAAACGCUCAAGCGGUAACAUGCUGGAUCUCAGGAAACCGUUUCGACAUGAGGCCCGGAUCCGGC
modifications: 5'-GMPS
activity [1]: 0.0051 s⁻¹

B9: 12.4 (ssRNA)
RNA: GGGAGCUCAGAAUAAACGCUCAACGAAUCAAUGCGCGGAUCUCAGGAUAUUCGUUCGACAUGAGGCCCGGAUCCGGC
modifications: 5'-GMPS
activity [1]: 0.0017 s⁻¹

B10: 12.14 (ssRNA)
RNA: GGGAGCUCAGAAUAAACGCUCAAACGUCAUUCCGAGUCGGGUUCGUUCCCCGCUUCGACAUGAGGCCCGGAUCCGGC
modifications: 5'-GMPS
activity [1]: 0.0017 s⁻¹

B11: 12.1 (ssRNA)
RNA: GGGAGCUCAGAAUAAACGCUCAAAGCUGUUGGCAGCGCUGGUGAAGGGAUAGGCUUCGACAUGAGGCCCGGAUCCGGC
modifications: 5'-GMPS
Ki (bradykinin (BK)): 0.14 mM
Ki (des-Arg9-bradykinin): 2.6 mM

B12: 12.24 (ssRNA)
RNA: GGGAGCUCAGAAUAAACGCUCAACGUCAGCGGAUCUCCAUUGCGUUAUACGGGUUCGACAUGAGGCCCGGAUCCGGC
modifications: 5'-GMPS
activity [1]: 0.00144 s⁻¹
